The values below come from patent US9089565B2, “Compositions and methods for causing neurite outgrowth” (MEDICAL RESEARCH COUNCIL, priority 2009, dated 2015).

The test has as its target T1, NgR1 (Homo sapiens, UniProt Q9BZR6, S281A).
T1 construct: The cDNAs of NgR1 (NM 023004, Nt. 184-1543); expressed in transfected cells; host or cells: COS7
T1 sequence (Q9BZR6 27-447 S281A): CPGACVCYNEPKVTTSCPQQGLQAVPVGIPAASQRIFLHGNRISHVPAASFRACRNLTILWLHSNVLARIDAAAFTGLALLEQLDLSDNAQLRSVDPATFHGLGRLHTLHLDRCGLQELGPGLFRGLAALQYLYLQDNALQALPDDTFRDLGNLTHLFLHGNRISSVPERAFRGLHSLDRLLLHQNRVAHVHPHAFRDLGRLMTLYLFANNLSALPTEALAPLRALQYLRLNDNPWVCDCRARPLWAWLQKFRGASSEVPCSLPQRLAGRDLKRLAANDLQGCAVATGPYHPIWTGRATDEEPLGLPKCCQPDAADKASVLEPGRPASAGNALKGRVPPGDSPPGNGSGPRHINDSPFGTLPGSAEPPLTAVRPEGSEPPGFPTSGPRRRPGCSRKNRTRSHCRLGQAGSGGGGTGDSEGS
Description: Binding of Nogo-66 fragment (Nogo-GFP) to COS7 cells over-expressing NgR1. The following applies: 281S/A mutant NgR1; pre-treatment 30 min (CK2 with ATP, or NEP1-40). The method, then:
FIG. 3. CK2 phosphorylates NgR1, and inhibits binding of the myelin-associated proteins to NgR1. (A) Myc-tagged wild type, 281S/A or 281S/D mutant NgR1 were over-expressed in COS7 cells. The over-expressed cells were incubated with either the combination of ATP and CK2, or NEP1-40 for 30 min at 37° C. After washing with PBS, cells were incubated with Hisx6-tagged Nogo-GFP for 3 hours at 4° C. The cells were fixed and immunofluorescence was performed with anti-Myc and anti-GFP antibodies. (B) COS7 cells over-expressing Myc-tagged wild type NgR1 were treated as described in (A). Proteins were extracted and the Myc-tagged NgR1 was immunoprecipitated with anti-Myc antibody. Co-precipitated Hisx6-tagged Nogo-GFP was detected by anti-GFP antibody. (C) Cell surface proteins in NgR1-overexpressing COS7 cells were labelled with biotin. The biotinylated proteins were fractionated and analysed by SDS-PAGE. Biotinylated NgR1-Myc was detected with anti-Myc. antibody. (D) COS7 cells over-expressing either wild type NgR1-Myc or 281S/A mutant NgR1-Myc were incubated with ã-^32P-ATP in the presence or absence of CK2. Myc-tagged proteins were immunoprecipitated and analysed with SDS-PAGE. Proteins were blotted onto a PVDF membrane and the membrane was exposed to X-ray film to detect incorporated ^32P. After autoradiography, the membrane was used for immunoblotting with anti-Myc antibody. (E and F) COS7 cells over-expressing Myc-tagged wild type, 281S/A or 281S/D mutant NgR1, were treated as described in (A). After washing with PBS, cells were incubated with either His-tagged OMgp (E) or HA-tagged MAG (F) for 3 hours at 4° C. […]
After treatment with or without CK2, COS7 cells over-expressing wild type or mutant NgR were incubated with Hisx6 tagged Nogo-GFP (10 μg/ml), HA-MAG (50 μg/ml) or Hisx6 tagged OMgp (10 μg/ml) in PBS for 3 hours at 4° C. […] Biotinylated proteins were precipitated with streptavidin beads and were analysed by SDS-PAGE. Each sample fractionated from 5×10^6 cells was analysed by SDS-PAGE. […]

With “NEP1-40: a competitive inhibitor of Nogo-66 binding to NgR1 (MEDLDQSPLVSSSDSPPRPQPAFKYQFVREPEDEEEEEEE; Nogo-66 residues 1-40; UniProt Q9NQC3 1-40, looked up, fragment) [reference compound]”, the “binding of the Nogo-66 fragment, immunofluorescence” value was “inhibited binding”.
